{"source": "the DeepSol protein solubility set"}
{"experiment": "soluble on expression in E. coli; label from the status in PepcDB or PDB records"}
{"sequence": "SLSTADALDDENTFKILVATDIHLGFMEKDAVRGNDTFVTLDEILRLAQENEVDFILLGGDLFHENKPSRKTLHTCLELLRKYCMGDRPVQFEILSDQSVNFGFSKFPWVNYQDGNLNISIPVFSIHGNHDDPTGADALCALDILSCAGFVNHFGRSMSVEKIDISPVLLQKGSTKIALYGLGSIPDERLYRMFVNKKVTMLRPKEDENSWFNLFVIHQNRSKHGSTNFIPEQFLDDFIDLVIWGHEHECKIAPTKNEQQLFYISQPGSSVVTSLSPGEAVKKHVGLLRIKGRKMNMHKIPLHTVRQFFMEDIVLANHPDIFNPDNPKVTQAIQSFCLEKIEEMLENAERERLGNSHQPEKPLVRLRVDYSGGFEPFSVLRFSQKFVDRVANPKDIIHFFRHREQKEKTGEEINFGKLITKPSEGTTLRVEDLVKQYFQTAEKNVQLSLLTERGMGEAVQEFVDKEEKDAIEELVKYQLEKTQRFLKERHIDALEDKIDEEVRRFRETRQKNTNEEDDEVREAMTRARALR", "soluble on expression in E. coli": "soluble"}
{"sequence": "SLTASIVYLNNVRLETGFAKDHHELTYTKTARYTLAIQEGKIQAIIPQNQVTEKQQGTDLNGQLAIPAFQESHNHLDKTYLSLGWRASQPVKNLKERLADEASELKLLAPSTEQRATAMIEKLIGYGASYIRTHVNIDPYVELENFWGVKRALEKYAHVIDYDIVVFPQHGLLKNPQTVLLMREALKNGGTMVGGLDPAGIDYAIEESLETIFDLAEEFQVGIDIHLHDTGEVGVYTIDKFLDILEERKFTQRTAISHAFALLDVRPAEKEKLYQRLATHQTAIMSTIPYDPRYLLPPIDVLRQAGVSVHLGSDGFFDSWSSNVSGDLFEKLRNFCEMTGKITEEQLTQAYVHGCGKVAPFSFEEERLWFTEGDEANFIFTEAASTAEVIARKPQKRQIMLKGQWV", "soluble on expression in E. coli": "soluble"}
{"sequence": "SLTRATKGFLSKSLPKASEATPGSQSSDYIPLVSLQLASGAFLLNEAFCTTIQIPMEKLKWTSPFSCLRMSLVTRRQDLKTQSPQDCTSLSSSPPSCDGISLKSEESSDQESNAMLEHMGKLWATVVALAWLEHSSANYIIEWELVAAKASSWVEKQKVPEGRTLSTLKNTARQLFVLLRHWDEKLEFNMLCYNPNYV", "soluble on expression in E. coli": "soluble"}
{"sequence": "SLTTENQNPLVLDKNEEISQQKADDIRLQLRQEPEVKRLAQQIDVKNQMELLEYGKEPAVEISKFSDRILGMMKTTSVTDSGTMLTQLGKIMDRFDKNDFDEPKGLMAKIFKRGGSMIEKIFKKYQTLGGEIEKIHVEISKYKDEMTKTNYTLDEMYENNIKYYMELEKYVVAGQMKLEEMQSILPSYEEKAASGNQLAQMQLDTLRNGIQALEERVYDLDMARMVALQTAPQIRLLQRGNAKLIGKINSAFIITIPIFKNGIIQAVTVKRQKLVADSMSELDRRTNEMLKRNAENISSQSVEIARMAGRPSIDIETIESSWNTIVSGMQETKQIEEENKRLREDGARRIAQLQDNIKKAALQQ", "soluble on expression in E. coli": "soluble"}
{"sequence": "SLTTFATEWEKQLELYPEEYRKAYRRVKRASEILLREPEPQVGLTPKEVIWTKNKTKLYRYIPKQEKTQRVPILLIYALINKPYIMDLTPGNSLVEYLVDRGFDVYMLDWGTFGLEDSHLKFDDFVFDYIAKAVKKVMRTAKSDE", "soluble on expression in E. coli": "soluble"}
{"sequence": "SLVARSVVVSAEAVYSHEGEYVGDHVLVDEGLVKSISRGEPHVSVGKRVAVKGFLLPPLVDAHLHMRSLGASFRIVNLKGASSPEEVAKRLAAANSPIAVGRGWNEEEFRPGSRLDRRILDSYLGEKPALAVRICGHVAVANSAFIRESGVDKLFPNLVDRERGLLLEDAVSYAVSVAMKTYNNEELLRDAASALASVGVFGVSSMACSEEEVRALSLIGDALEVRVACYLRRGVEPPPKRAGARWSIVGVKLFADGSLGGRTAYLRRPYISGENEGWRGLKLLSSRDIAEEAVSNSHRGLATAVHAIGDAALDEVLEGFSNAISRGVEPGMLRVEHASLAWPNQIDRLASLRVWTVVQPLFRVSDWWLESRVGSDMLQAAYPFASMLRAGVKLALSTDAPVETYDPAETFKAAVGLCSSRLCRESESLTPRETLKLYTLNSALASGGPVAWLGRLRRGAPALFAVANVDVLNSGRKELEKLKFRGLNLAK", "soluble on expression in E. coli": "not soluble"}
{"sequence": "SMAFKIQLDTLGQLPGLLSIYTQISLLYPVSDSSQYPTIVSTFEQGLKRFSEAVPWVAGQVKAEGISEGNTGTSFIVPFEDVPRVVVKDLRDDPSAPTIEGMRKAGYPMAMFDENIIAPRKTLPIGPGTGPDDPKPVILLQLNFIKGGLILTVNGQHGAMDMVGQDAVIRLLSKACRNDPFTEEEMTAMNLDRKTIVPYLENYTIGPEVDHQIVKADVAGGDAVLTPVSASWAFFTFSPKAMSELKDAATKTLDASTKFVSTDDALSAFIWKSASRVRLERIDGSAPTEFCRAVDARPAMGVSNNYPGLLQNMTYHNSTIGEIANESLGATASRLRSELDPASMRQRTRGLATYLHNNPDKSNVSLTADADPSTSVMLSSWAKVGLWDYDFGLGLGKPETVRRPIFEPVESLMYFMPKKPDGEFCAALSLRDEDMDRLKADKEWTKYAQYVG", "soluble on expression in E. coli": "soluble"}
{"sequence": "SMFIKKIKAKANNNEINVIIEIPMNSGPIKYEFDKESGALFVDRFMQTTMSYPCNYGFIPDTLSNDGDPVDVLVVAHHPVVPGSVIKCRAIGVLMMEDESGLDEKIIAVPTSKLDITFDHIKELDDLCEMLKKRIVHFFEHYKDLEKGKWVKVTGWGDKVKAETLIKEGIDRN", "soluble on expression in E. coli": "soluble"}
{"sequence": "SMPHSVTLRGPSPWGFRLVGGRDFSAPLTISRVHAGSKAALAALCPGDLIQAINGESTELMTHLEAQNRIKGCHDHLTLSVSRPEGESDL", "soluble on expression in E. coli": "soluble"}
{"sequence": "SMSMKATRLAIPDVILFEPRVFGDDRGFFFESYNQRAFEEACGHPVSFVQDNHSRSARGVLRGLHYQIRQAQGKLVRATLGEVFDVAVDLRRGSPTFGQWVGERLSAENKRQMWIPAGFAHGFVVLSEYAEFLYKTTDFWAPEHERCIVWNDPELKIDWPLQDAPLLSEKDRQGKAFADADCFP", "soluble on expression in E. coli": "soluble"}
{"sequence": "SNAMARKKNTSDQSRSQAANTPIAGTYEGEYSVIELEADSYTTDGWLISINGVPSSHIVLGQPQALEFEYMRWIATGARAFIDAHQDASKLRITHLGGGACTMARYFADVYPQSRNTVVELDAELARLSREWFDIPRAPRVKIRVDDARMVAESFTPASRDVIIRDVFAGAITPQNFTTVEFFEHCHRGLAPGGLYVANCGDHSDLRGAKSELAGMMEVFEHVAVIADPPMLKGRRYGNIILMGSDTEFFSSNSTEASAITRELLGGGVPAQYKDESWVRKFASGAQARHDGVSTLQMPSDTPQHPAETPEHSNTQP", "soluble on expression in E. coli": "soluble"}
{"sequence": "SNAMIRKYRYGAPFDTEALTEKIETAEEAFPYGEISQKEGFAFTYIMDEDDIVYGLGESNRGINKRGYCYISNCTDDPIHTEDKRSLYGAHNFIIVSGKTTFGLFFDYPSKLTFDIGYTRMDTLKVSCENADLDIYVIEGENAYDIVKQFRRVIGRSYIPPKFAFGFGQSRWGYTTKEDFRAVAKGYRENHIPIDMIYMDIDYMQDFKDFTVNEKNFPDFPEFVKEMKDQELRLIPIIDAGVKVEKGYEVYEEGVKNNYFCKREDGSDFVAAVWPGDTHFPDMLNPEARKWFGDKYRFLIDQGIEGFWNDMNEPAIFYSSEGLAEAKEFAGEFAKDTEGKIHPWAMQAKMKDIVNSPEDYKRFYHNVNGKKIRHDKVHNLFGYNMTRAAGEAFERIDPEKRFLMFSRSSYIGMHRYGGIWMGDNKSWWSHILLNLKMLPSLNMCGFMYTGADLGGFGDDTTRDLLLRFLALGVFTPLMRDHAAEGTREQECYQFENIEDFRSVINARYRLVPYLYSEYMKAALNDDMYFKPLGFVYPDDKMAIRVEDQLMLGNEIMIAPVYEQNARGRYVYLPEEMKFIKFMPDGSISEEVLEKGVHYVDVALNEVPLFIRSGKCIPVAEAAECVKDIDTENMQLIGYEGSSYTLYEDDGIHKDYDKKENYRVLTK", "soluble on expression in E. coli": "soluble"}
{"sequence": "SNAMQKSVLEQLKQVTMVVADTGDFELIKKYKPVDATTNPSLILKAVKEQKYSNLVAETISKVKANNPDLNSDDLVKEIAIEILVSFGIKILDVIEGKVSSEVDARVSFNSATTIDYAKRIIARYESNGIPKDRVLIKIAATWEGIKAAKLLQKEGINCNLTLIFDKAQAKACAEAGVYLVSPFVGRITDWQMQQNNLKTFPAIADDDGVNSVKAIYKLYKSHGFKTIVMGASFRNVEQVIALAGCDALTISPVLLEELKNRDEHLEVKLTKNDDVVTQSPQISEADFRWLMNENAMATHKLAEGIRLFTKDTIELENIIKQNL", "soluble on expression in E. coli": "soluble"}
{"sequence": "SNAMRIGHGFDVHKFGENGSGPLIIGGVRIPYEKGLLAHSDGDVALHAATDALLGAAALGDIGKLFPDTDPAFKGADSRGLLREAYRRILAKGYKLGNLDITIIAQAPKMAPHIPQMRVNLAEDLQCHMDDINVKATTTEQLGFTGRGEGIACEAVVLLVNVEQG", "soluble on expression in E. coli": "soluble"}
